Reference: publication PMC8419929

Key:
[1] = biological target: rat lutropin/chorionic gonadotropin receptor (rLH/CGR) (rat) (UniProt P16235)
[2] = biological target: rat follicle-stimulating hormone receptor (rFSHR) (rat) (UniProt P20395)
Chain of UniProt P20395 (P20395 18-692): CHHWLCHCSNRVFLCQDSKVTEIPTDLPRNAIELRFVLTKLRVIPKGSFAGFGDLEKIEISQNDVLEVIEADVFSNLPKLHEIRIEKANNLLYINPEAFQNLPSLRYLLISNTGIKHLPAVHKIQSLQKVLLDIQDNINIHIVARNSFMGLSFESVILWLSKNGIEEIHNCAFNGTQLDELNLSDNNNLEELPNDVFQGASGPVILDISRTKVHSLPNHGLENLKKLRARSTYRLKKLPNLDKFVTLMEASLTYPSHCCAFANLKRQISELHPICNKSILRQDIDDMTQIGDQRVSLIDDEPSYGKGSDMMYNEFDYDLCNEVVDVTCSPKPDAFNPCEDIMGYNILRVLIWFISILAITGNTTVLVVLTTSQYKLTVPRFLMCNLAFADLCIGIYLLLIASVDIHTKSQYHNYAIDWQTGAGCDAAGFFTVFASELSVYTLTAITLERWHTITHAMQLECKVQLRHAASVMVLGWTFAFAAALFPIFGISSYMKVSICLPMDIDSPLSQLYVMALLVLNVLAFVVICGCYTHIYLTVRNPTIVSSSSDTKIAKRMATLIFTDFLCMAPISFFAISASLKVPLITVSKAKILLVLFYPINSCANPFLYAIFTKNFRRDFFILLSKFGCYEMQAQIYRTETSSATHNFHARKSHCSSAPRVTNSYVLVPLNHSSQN

Chain of UniProt P16235 (P16235 27-700): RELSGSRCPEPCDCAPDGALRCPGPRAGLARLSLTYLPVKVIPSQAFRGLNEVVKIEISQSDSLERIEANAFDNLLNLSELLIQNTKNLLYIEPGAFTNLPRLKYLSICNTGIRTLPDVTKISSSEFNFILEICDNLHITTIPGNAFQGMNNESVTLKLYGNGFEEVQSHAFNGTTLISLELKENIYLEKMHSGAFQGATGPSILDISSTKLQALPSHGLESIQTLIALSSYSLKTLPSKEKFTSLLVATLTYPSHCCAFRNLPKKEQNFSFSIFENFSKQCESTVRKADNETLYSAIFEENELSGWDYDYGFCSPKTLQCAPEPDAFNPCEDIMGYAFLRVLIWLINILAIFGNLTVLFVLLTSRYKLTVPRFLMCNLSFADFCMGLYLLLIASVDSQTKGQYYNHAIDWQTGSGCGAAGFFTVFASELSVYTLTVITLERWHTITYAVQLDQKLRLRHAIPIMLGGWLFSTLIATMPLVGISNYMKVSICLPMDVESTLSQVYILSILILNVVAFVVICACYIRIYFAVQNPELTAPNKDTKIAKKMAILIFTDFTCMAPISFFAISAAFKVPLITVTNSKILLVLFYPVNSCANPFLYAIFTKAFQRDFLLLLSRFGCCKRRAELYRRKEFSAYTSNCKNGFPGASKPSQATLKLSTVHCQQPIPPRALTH

Row | EC50 of cAMP production (HTRF cAMP immunoassay) in CHO-K1 cells transiently expressing rLH/CGR, 30 min at room temperature, mock-transfected cells subtracted [1] [µg/mL] | EC50 of cAMP production (HTRF cAMP immunoassay) in CHO-K1 cells transiently expressing rFSHR, 30 min at room temperature, mock-transfected cells subtracted [2] [µg/mL] | Substance
1 | 0.0245 | 0.0631 | rec-eCGβ-D/α (single-chain eCG, CTP region of the β-subunit deleted) (ligand)
2 | 0.334 | 0.0949 | rec-eCGβ-D/αΔ56 (single-chain eCG double mutant: CTP of the β-subunit deleted and Asn56 of the α-subunit replaced with Gln) (ligand)
3 | 0.0046 | 0.0271 | recombinant single-chain equine chorionic gonadotropin, rec-eCGβ/α-wt (from UniProt P08751 21-169) (ligand)
4 | 0.0176 | 0.112 | rec-eCGβ/αΔ56 (single-chain eCG, Asn56 of the α-subunit replaced with Gln) (from UniProt P08751 21-169) (ligand)
